Where no end group is shown, it is not given here. Side-chain parts run from the residue outwards. [ ]: non-standard residue; d: D form. The star is where a group is joined. Desaminohistidyl = O=C(CCc1c[nH]cn1)*; Palmitoyl = CCCCCCCCCCCCCCCC(=O)*; NMeQ = CN[C@@H](CCC(N)=O)C(=O)O; GABA = NCCCC(=O)O

The chains are these.
B1: SEQ ID NO: (24) (peptide)
peptide: [Desaminohistidyl]SQGTFTSDLSKQMDSRRAQDFIEWLKNGGPSSGAPPPS-NH2
SMILES: CC[C@H](C)[C@H](NC(=O)[C@H](Cc1ccccc1)NC(=O)[C@H](CC(=O)O)NC(=O)[C@H](CCC(N)=O)NC(=O)[C@H](C)NC(=O)[C@H](CCCNC(=N)N)NC(=O)[C@H](CCCNC(=N)N)NC(=O)[C@H](CO)NC(=O)[C@H](CC(=O)O)NC(=O)[C@H](CCSC)NC(=O)[C@H](CCC(N)=O)NC(=O)[C@H](CCCCN)NC(=O)[C@H](CO)NC(=O)[C@H](CC(C)C)NC(=O)[C@H](CC(=O)O)NC(=O)[C@H](CO)NC(=O)[C@@H](NC(=O)[C@H](Cc1ccccc1)NC(=O)[C@@H](NC(=O)CNC(=O)[C@H](CCC(N)=O)NC(=O)[C@H](CO)NC(=O)CCc1c[nH]cn1)[C@@H](C)O)[C@@H](C)O)C(=O)N[C@@H](CCC(=O)O)C(=O)N[C@@H](Cc1c[nH]c2ccccc12)C(=O)N[C@@H](CC(C)C)C(=O)N[C@@H](CCCCN)C(=O)N[C@@H](CC(N)=O)C(=O)NCC(=O)NCC(=O)N1CCC[C@H]1C(=O)N[C@@H](CO)C(=O)N[C@@H](CO)C(=O)NCC(=O)N[C@@H](C)C(=O)N1CCC[C@H]1C(=O)N1CCC[C@H]1C(=O)N1CCC[C@H]1C(=O)N[C@@H](CO)C(N)=O
B2: SEQ ID NO: (125) (peptide)
peptide: H[dS]QGTFTSDLSKQMESRRAQDFIEWLKSGGPSSGAPPPSK([GABA-Palmitoyl])-NH2
modifications: N-terminus assumed
SMILES: CCCCCCCCCCCCCCCC(=O)NCCCC(=O)NCCCC[C@H](NC(=O)[C@H](CO)NC(=O)[C@@H]1CCCN1C(=O)[C@@H]1CCCN1C(=O)[C@@H]1CCCN1C(=O)[C@H](C)NC(=O)CNC(=O)[C@H](CO)NC(=O)[C@H](CO)NC(=O)[C@@H]1CCCN1C(=O)CNC(=O)CNC(=O)[C@H](CO)NC(=O)[C@H](CCCCN)NC(=O)[C@H](CC(C)C)NC(=O)[C@H](Cc1c[nH]c2ccccc12)NC(=O)[C@H](CCC(=O)O)NC(=O)[C@@H](NC(=O)[C@H](Cc1ccccc1)NC(=O)[C@H](CC(=O)O)NC(=O)[C@H](CCC(N)=O)NC(=O)[C@H](C)NC(=O)[C@H](CCCNC(=N)N)NC(=O)[C@H](CCCNC(=N)N)NC(=O)[C@H](CO)NC(=O)[C@H](CCC(=O)O)NC(=O)[C@H](CCSC)NC(=O)[C@H](CCC(N)=O)NC(=O)[C@H](CCCCN)NC(=O)[C@H](CO)NC(=O)[C@H](CC(C)C)NC(=O)[C@H](CC(=O)O)NC(=O)[C@H](CO)NC(=O)[C@@H](NC(=O)[C@H](Cc1ccccc1)NC(=O)[C@@H](NC(=O)CNC(=O)[C@H](CCC(N)=O)NC(=O)[C@@H](CO)NC(=O)[C@@H](N)Cc1c[nH]cn1)[C@@H](C)O)[C@@H](C)O)[C@@H](C)CC)C(N)=O
B3: SEQ ID NO: (124) (peptide)
peptide: H[dS]QGTFTSDLSKQMESRRAQDFIEWLKSGGPSSGAPPPK([GABA-Palmitoyl])-NH2
modifications: N-terminus assumed
SMILES: CCCCCCCCCCCCCCCC(=O)NCCCC(=O)NCCCC[C@H](NC(=O)[C@@H]1CCCN1C(=O)[C@@H]1CCCN1C(=O)[C@@H]1CCCN1C(=O)[C@H](C)NC(=O)CNC(=O)[C@H](CO)NC(=O)[C@H](CO)NC(=O)[C@@H]1CCCN1C(=O)CNC(=O)CNC(=O)[C@H](CO)NC(=O)[C@H](CCCCN)NC(=O)[C@H](CC(C)C)NC(=O)[C@H](Cc1c[nH]c2ccccc12)NC(=O)[C@H](CCC(=O)O)NC(=O)[C@@H](NC(=O)[C@H](Cc1ccccc1)NC(=O)[C@H](CC(=O)O)NC(=O)[C@H](CCC(N)=O)NC(=O)[C@H](C)NC(=O)[C@H](CCCNC(=N)N)NC(=O)[C@H](CCCNC(=N)N)NC(=O)[C@H](CO)NC(=O)[C@H](CCC(=O)O)NC(=O)[C@H](CCSC)NC(=O)[C@H](CCC(N)=O)NC(=O)[C@H](CCCCN)NC(=O)[C@H](CO)NC(=O)[C@H](CC(C)C)NC(=O)[C@H](CC(=O)O)NC(=O)[C@H](CO)NC(=O)[C@@H](NC(=O)[C@H](Cc1ccccc1)NC(=O)[C@@H](NC(=O)CNC(=O)[C@H](CCC(N)=O)NC(=O)[C@@H](CO)NC(=O)[C@@H](N)Cc1c[nH]cn1)[C@@H](C)O)[C@@H](C)O)[C@@H](C)CC)C(N)=O
B4: SEQ ID NO: (25) (peptide)
peptide: HS[NMeQ]GTFTSDLSKQMDSRRAQDFIEWLKNGGPSSGAPPPS-NH2
modifications: N-terminus assumed
SMILES: CC[C@H](C)[C@H](NC(=O)[C@H](Cc1ccccc1)NC(=O)[C@H](CC(=O)O)NC(=O)[C@H](CCC(N)=O)NC(=O)[C@H](C)NC(=O)[C@H](CCCNC(=N)N)NC(=O)[C@H](CCCNC(=N)N)NC(=O)[C@H](CO)NC(=O)[C@H](CC(=O)O)NC(=O)[C@H](CCSC)NC(=O)[C@H](CCC(N)=O)NC(=O)[C@H](CCCCN)NC(=O)[C@H](CO)NC(=O)[C@H](CC(C)C)NC(=O)[C@H](CC(=O)O)NC(=O)[C@H](CO)NC(=O)[C@@H](NC(=O)[C@H](Cc1ccccc1)NC(=O)[C@@H](NC(=O)CNC(=O)[C@H](CCC(N)=O)N(C)C(=O)[C@H](CO)NC(=O)[C@@H](N)Cc1c[nH]cn1)[C@@H](C)O)[C@@H](C)O)C(=O)N[C@@H](CCC(=O)O)C(=O)N[C@@H](Cc1c[nH]c2ccccc12)C(=O)N[C@@H](CC(C)C)C(=O)N[C@@H](CCCCN)C(=O)N[C@@H](CC(N)=O)C(=O)NCC(=O)NCC(=O)N1CCC[C@H]1C(=O)N[C@@H](CO)C(=O)N[C@@H](CO)C(=O)NCC(=O)N[C@@H](C)C(=O)N1CCC[C@H]1C(=O)N1CCC[C@H]1C(=O)N1CCC[C@H]1C(=O)N[C@@H](CO)C(N)=O

In one test the target is human GLP-1 receptor (human, UniProt P43220 24-463). Kind of test: cell-based or functional assay.
As for HSQGTFTSDLSKQMDSRRAQDFIEWLKNGGPSSGAPPPK(Palmitoyl)-NH2 [SEQ ID NO: (21)], the “EC50 hGLP-1R (cAMP formation)” value came to 0.0782 nM.

Regarding B1, the “EC50 hGLP-1R (cAMP formation)” value was determined as 0.264 nM.

For the molecule B2, the “EC50 hGLP-1R (cAMP formation)” value came out at 0.0108 nM.

As for B3, the “EC50 hGLP-1R (cAMP formation)” value is 0.0139 nM.

Regarding HSQGTFTSDLSKQMDKRRAQDFIEWLKNGGPSSGAPPPS-NH2 [SEQ ID NO: (19)], the “EC50 hGLP-1R (cAMP formation)” value turned out to be 0.017 nM.

Turning to HSQGTFTSDLSKQMDSRRAQDFIEWLKNGGPSSGAPPPS-NH2 [SEQ ID NO: (9)], the “EC50 hGLP-1R (cAMP formation)” value was 0.0222 nM.

B4: the “EC50 hGLP-1R (cAMP formation)” value worked out at 0.17 nM.

As for HSQGTFTSDLSKQMDSRAAQLFIEWLKNGGPSSGAPPPS-NH2 [SEQ ID NO: (22)], the “EC50 hGLP-1R (cAMP formation)” value came to 0.0008 nM.

A further test deals with human glucagon receptor (human, UniProt P47871 26-477). Kind of test: cell-based or functional assay.
Chain of human glucagon receptor (P47871 26-477): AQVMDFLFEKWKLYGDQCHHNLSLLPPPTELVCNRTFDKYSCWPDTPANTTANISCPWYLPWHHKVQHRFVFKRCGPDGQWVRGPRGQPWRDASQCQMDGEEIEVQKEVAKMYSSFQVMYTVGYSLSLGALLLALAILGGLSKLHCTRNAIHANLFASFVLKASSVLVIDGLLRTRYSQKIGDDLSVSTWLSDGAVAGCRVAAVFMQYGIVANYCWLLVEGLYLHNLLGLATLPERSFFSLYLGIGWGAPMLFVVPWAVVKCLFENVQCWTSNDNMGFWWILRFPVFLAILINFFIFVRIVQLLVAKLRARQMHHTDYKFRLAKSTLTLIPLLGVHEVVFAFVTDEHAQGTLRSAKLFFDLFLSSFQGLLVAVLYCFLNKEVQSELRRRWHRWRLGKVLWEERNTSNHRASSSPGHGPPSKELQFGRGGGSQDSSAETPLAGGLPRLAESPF
HSQGTFTSDLSKQMDSRRAQDFIEWLKNGGPSSGAPPPK(Palmitoyl)-NH2 [SEQ ID NO: (21)]: the “EC50 hGlucagonR (cAMP formation)” value was determined as 0.547 nM.

Regarding B1, the “EC50 hGlucagonR (cAMP formation)” value came to 0.168 nM.

As to B2, the “EC50 hGlucagonR (cAMP formation)” value is 0.0171 nM.

Consider B3, for which the “EC50 hGlucagonR (cAMP formation)” value came to 0.0213 nM.

On to HSQGTFTSDLSKQMDKRRAQDFIEWLKNGGPSSGAPPPS-NH2 [SEQ ID NO: (19)], for which the “EC50 hGlucagonR (cAMP formation)” value turned out to be 0.052 nM.

For the molecule HSQGTFTSDLSKQMDSRRAQDFIEWLKNGGPSSGAPPPS-NH2 [SEQ ID NO: (9)], the “EC50 hGlucagonR (cAMP formation)” value is 0.0264 nM.

Turning to B4, the “EC50 hGlucagonR (cAMP formation)” value turned out to be 0.171 nM.

Take HSQGTFTSDLSKQMDSRAAQLFIEWLKNGGPSSGAPPPS-NH2 [SEQ ID NO: (22)]: the “EC50 hGlucagonR (cAMP formation)” value was determined as 0.127 nM.
